Data published in paper PMC3239214 (Nucleic Acids Research, 2011).

Target: the molecule itself
Experiment: SEC

B1: GyrA_ΔCTD (domain or fragment, Bacillus subtilis, UniProt P05653 1-489, looked up)
chain: MSEQNTPQVREINISQEMRTSFLDYAMSVIVSRALPDVRDGLKPVHRRILYAMNDLGMTSDKPYKKSARIVGEVIGKYHPHGDSAVYESMVRMAQDFNYRYMLVDGHGNFGSVDGDSAAAMRYTEARMSKISMEILRDITKDTIDYQDNYDGSEREPVVMPSRFPNLLVNGAAGIAVGMATNIPPHQLGEIIDGVLAVSENPDITIPELMEVIPGPDFPTAGQILGRSGIRKAYESGRGSITIRAKAEIEQTSSGKERIIVTELPYQVNKAKLIEKIADLVRDKKIEGITDLRDESDRTGMRIVIEIRRDANANVILNNLYKQTALQTSFGINLLALVDGQPKVLTLKQCLEHYLDHQKVVIRRRTAYELRKAEARAHILEGLRVALDHLDAVISLIRNSQTAEIARTGLIEQFSLTEKQAQAILDMRLQRLTGLEREKIEEEYQSLVKLIAELKDILANEYKVLEIIREELTEIKERFNDERRTEIVT
  stoichiometry N: 2
